# Source: paper PMC3177189
# Read-outs that look alike come from different tables or passages of the source.
# T1: AaNusB;AaNusE (S10) loop deletion (Aquifex aeolicus;Aquifex aeolicus, UniProt O66530;O66430 1-148;1-46+=S+69-104, |internal_change)
# T1 sequence 1: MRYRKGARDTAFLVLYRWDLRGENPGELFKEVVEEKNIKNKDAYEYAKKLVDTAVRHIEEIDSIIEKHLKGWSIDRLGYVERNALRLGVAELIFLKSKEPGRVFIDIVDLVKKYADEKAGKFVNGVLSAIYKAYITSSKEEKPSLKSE
# T1 sequence 2: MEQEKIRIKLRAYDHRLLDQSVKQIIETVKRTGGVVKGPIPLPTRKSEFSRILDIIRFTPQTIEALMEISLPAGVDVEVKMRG
# Key:
# [1] = target: T1, AaNusB;AaNusE (S10) loop deletion; assay: crystal structure
# [2] = target: T1, AaNusB;AaNusE (S10) loop deletion; assay: crystal structure; remark: listed apart in the source
# EcNusB F122D = EcNusB F122D (Escherichia coli, UniProt P0A780 1-139, F122D); assay: ITC
# EcNusB wt = EcNusB wt (Escherichia coli, UniProt P0A780 1-139); assay: NMR
binder,measurement,setting,value
AaBoxA duplex (dsRNA) (dsRNA) RNA 1: GGCUCCUUGGCA RNA 2: GGCUCCUUGGCA,binding result,[1],binds
GGCUCCUUGGCA (ssRNA) [AaBoxA],binding result,[2],binds
UGCUCUUUAACA (ssRNA) [EcBoxA],binding result,EcNusB F122D,no binding
GCCGCGCCGCUGAGAAAAAGCGAAGCGGCACUGCUCUUUA (structured_RNA) [EcBoxA-BoxB],binding result,EcNusB wt,binds
